Experimental data reported in patent US20250163168A1 (Pfizer, published 2025).
Square brackets hold non-standard residues; d marks the D form. Ends that are not written are not given here. * marks the point of attachment. Aib = CC(C)(N)C(=O)O; BrAc = O=C(CBr)*

What was measured:
human GLP1R = human GLP1R (human, UniProt P43220 24-463); assay: cell-based or functional assay
[1] = target: T1, human GIPR (hGIPR), full length (human, UniProt P48546 22-466); assay: cell-based or functional assay
T1 sequence: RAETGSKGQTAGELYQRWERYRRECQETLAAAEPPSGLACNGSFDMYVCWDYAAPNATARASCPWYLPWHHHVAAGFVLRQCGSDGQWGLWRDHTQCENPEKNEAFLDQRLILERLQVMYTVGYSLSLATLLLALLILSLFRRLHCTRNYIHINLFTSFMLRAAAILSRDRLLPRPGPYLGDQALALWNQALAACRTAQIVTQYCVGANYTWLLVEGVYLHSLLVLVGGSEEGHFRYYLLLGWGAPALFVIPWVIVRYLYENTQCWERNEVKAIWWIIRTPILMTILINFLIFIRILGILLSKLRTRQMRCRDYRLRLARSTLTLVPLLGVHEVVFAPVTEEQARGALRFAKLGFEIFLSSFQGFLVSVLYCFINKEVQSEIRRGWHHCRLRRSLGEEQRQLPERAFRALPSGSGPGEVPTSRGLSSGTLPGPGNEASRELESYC

[2] = target: T2, Human GIPR ECD (GIPR extra cellular domain) (human); assay: SPR (Biacore 8K, 37 C); antibody captured on anti-human IgG, human GIPR ECD as analyte; 1:1 model
T2 construct: The published benchmark structures (6dkj, 4hj0) used their own ECD constructs
T2 chain: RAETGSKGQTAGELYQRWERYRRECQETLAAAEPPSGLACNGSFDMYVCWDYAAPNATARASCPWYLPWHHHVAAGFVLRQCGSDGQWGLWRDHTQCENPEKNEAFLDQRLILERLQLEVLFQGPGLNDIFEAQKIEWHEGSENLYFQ

human GLP1R, sequence (P43220 24-463): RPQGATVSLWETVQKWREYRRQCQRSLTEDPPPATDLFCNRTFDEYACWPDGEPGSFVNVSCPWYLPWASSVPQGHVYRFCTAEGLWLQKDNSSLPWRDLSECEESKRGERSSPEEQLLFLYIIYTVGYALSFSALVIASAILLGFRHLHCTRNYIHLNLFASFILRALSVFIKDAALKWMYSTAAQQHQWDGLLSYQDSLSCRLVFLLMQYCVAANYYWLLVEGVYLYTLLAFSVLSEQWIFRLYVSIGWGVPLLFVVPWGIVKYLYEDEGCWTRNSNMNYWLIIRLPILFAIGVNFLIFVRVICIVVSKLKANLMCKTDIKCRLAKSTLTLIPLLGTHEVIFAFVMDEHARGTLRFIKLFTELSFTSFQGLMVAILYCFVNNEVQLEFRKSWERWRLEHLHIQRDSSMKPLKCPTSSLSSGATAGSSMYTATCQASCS

B1: SEQ ID NO 152: GLP1(7-37) [Aib8; Tyr16; Aib22] with GGGGS(x3)-K(BrAc) linker (peptide)
peptide: H-H[Aib]EGTFTSDYSSYLE[Aib]QAAKEFIAWLVKGRGGGGGSGGGGSGGGGSK(BrAc)
modifications: not fully specified (C-terminus)
Human GLP1R
  cAMP assay, GLP1R agonist mode, EC50 (pM): 2.1 pM
  cAMP assay, GLP1R agonist mode, Emax (%): 107%

B2: SEQ ID NO 150: GLP1(7-37) [Aib8; Aib22] with GGGGS(x3)-K(BrAc) linker (peptide)
peptide: H-H[Aib]EGTFTSDVSSYLE[Aib]QAAKEFIAWLVKGRGGGGGSGGGGSGGGGSK(BrAc)
modifications: not fully specified (C-terminus)
Human GLP1R
  cAMP assay, GLP1R agonist mode, Emax (%): 104%

B3: SEQ ID NO 153 (Benchmark): GLP1(7-37) [Aib8; Glu22; Gly36] with GGGGS(x3)-K(BrAc) linker (peptide)
peptide: H-H[Aib]EGTFTSDVSSYLEEQAAKEFIAWLVKGGGGGGGSGGGGSGGGGSK(BrAc)
modifications: not fully specified (C-terminus)
Human GLP1R
  cAMP assay, GLP1R agonist mode, EC50 (pM): 15 pM
  cAMP assay, GLP1R agonist mode, Emax (%): 109%

B4: SEQ ID NO 151: GLP1(7-37) [Aib8; Tyr16; Glu22] with GGGGS(x3)-K(BrAc) linker (peptide)
peptide: H[Aib]EGTFTSDYSSYLEEQAAKEFIAWLVKGRGGGGGSGGGGSGGGGSK(BrAc)
modifications: not fully specified (C-terminus)
Human GLP1R
  cAMP assay, GLP1R agonist mode, EC50 (pM): 3.5 pM
  cAMP assay, GLP1R agonist mode, Emax (%): 109%

B5: anti-GIPR antibody GIPR-2767 (antibody, human IgG1, kappa)
heavy: EVQLVESGGGLVKPGGSLRLSCAASGFPFSSAWMSWVRQAPGKGLEWVGRIKSKADAGTTDYGAPVKGRFTISRDDSKNTLYLQMNSLKTEDTAVYYCTTEDIVGVPFKGYYQYMDAWGKGTTVTVSSASTKGPSVFPLAPSSKSTSGGTAALGCLVKDYFPEPVTVSWNSGALTSGVHTFPAVLQSSGLYSLSSVVTVPSSSLGTQTYICNVNHKPSNTKVDKKVEPKSCDKTHTCPPCPAPEAAGAPSVFLFPPKPKDTLMISRTPEVTCVVVDVSHEDPEVKFNWYVDGVEVHNAKTKPREEQYNSTYRVVSVLTVLHQDWLNGKEYKCKVSNKALPAPIEKTISKAKGQPREPQVYTLPPSREEMTKNQVSLTCLVKGFYPSDIAVEWESNGQPENNYKTTPPVLDSDGSFFLYSKLTVDKSRWQQGNVFSCSVMHEALHNHYTQKSLSLSPGK
light: not shown
notes: also called GIPR-27676; GIPR-2676
[1]
  Human GIPR-CHO cAMP Antagonist Activity IC50: 28 nM
[2]
  Kd: 1.91 nM
  koff: 0.0013 s⁻¹
  kon: 684000 M⁻¹ s⁻¹
